Substitutions are numbered along the chain they refer to. Names may count otherwise. Where two headings read alike, the source gives them in different places.
Key:
[1] = system: S. cerevisiae strain sKR-024; experiment: Growth of synthetic yeast strain sKR-024 expressing EPSPS variants with or without glyphosate; assay type: cell-based, Saccharomyces cerevisiae; conditions: for growth in yeast minimal media without glyphosate: 0 mM glyphosate; for order of glyphosate tolerance: 5 mM glyphosate, FIG. 1 Panel C; for glyphosate tolerance in synthetic yeast host: mutants isolated from directed evolution
Protocol: EPSPS variants were re-cloned into a clean p416-Core1p backbone and transformed into strain sKR-024 as described above. Colonies were then picked in triplicate into YSC-Ura-Leu and outgrown for 2 days at 30° C. Cultures were then diluted back to OD 0.001 in yeast minimal media (YMM) containing varying amounts of glyphosate as indicated. Growth rate measurements were then obtained using an Infinite M200 PRO microplate reader (Tecan, Männedorf, Switzerland) with incubation at 30° C. for 72-120 hours depending on growth rate of selected variants.
To determine if this system could further corroborate observations from previous literature, the well-studied EPSPS mutants T102I and P106S, and the combined double mutant TIPS (T102I-P106S) were generated and complemented into this yeast system. These mutations were reported to result in varying degrees of glyphosate resistance.
Having established low copy number and weak promoter expression of EPSPS variants, it was sought to recharacterize phenotypes under field conditions that are used in planta. […] It has been reported previously that under standard glyphosate foliar application, 0.3 mM or more of glyphosate (gly) can accumulate in a plant's root nodules and meristems. […] These trends support reported literature of mutants P106S and TIPS grown in various plant hosts. As a result, the present synthetic yeast model system closely resembles in planta observations and thus can be used to select for dual-trait EPSPS variants aimed at both enzymatic efficiency and glyphosate resistance.
Select mutants isolated from the final directed evolution campaign with the improved selection strategy were further evaluated in assorted glyphosate concentrations to determine growth characteristics. Mutants isolated from an EPSPS background were evaluated in media containing 0 mM and 0.25 mM glyphosate with the latter being the concentration at which wild-type EPSPS cannot grow after 100 hours. […] The non-glyphosate mono selection highlighted in blue represents mutations resulting from 5 subcultures in 0 mM glyphosate. The low glyphosate dual selection highlighted in light green represents mutants resulting from an additional subculture into 0.5 mM glyphosate. Lastly, the high glyphosate dual selection highlighted in dark green represent mutations isolated after subcultures in increasing levels of glyphosate, up to 10 mM.

[2] = system: transgenic maize plants; experiment: Maize transformation with glyphosate selection, plantlet recovery and quality checks; assay type: in vivo, Zea mays; conditions: for Number of young plants passing quality control checks: in vivo; for Number of plantlets generated: under glyphosate selection, same amount of starting material
From the text: Maize was used as a model system to test the functionality of the EPSPS variants because of detailed previous characterization of glyphosate tolerance in maize and a suitable transgenic plant generation protocol that relies on glyphosate. Plant transformation vectors were generated in which the native maize EPSPS sequence was used, which includes the native gene promoter elements, the native introns and exons and the native 3′ untranslated region and introduced mutations that corresponded to each of the selected amino acid changes. The native sequence was used to mimic as closely as possible how the selected EPSPS variants would perform if the variants were introduced directly in the genome without the help of strong expression elements. The following variants were selected for testing in a transgenic maize system: TIPS (as a control); TIPS-P126S-M217L-K296R; TIPS-P126S-K296R; T102I-P126S-K296R (where only the T102I change is present); P106S-P126S-K296R (where only the P106S change is present); and P126S-K296R (where neither of the TIPS changes are present).
Transgenic maize plants that expressed each of the six EPSPS variants were generated to determine if the variants conferred glyphosate tolerance to plants. The full DNA sequence encoding TIPS EPSPS (SEQ ID NO:1) was cloned from maize genomic DNA. In this sequence, the promoter and 5′ UTR are nucleotides 1:2556; the chloroplast transit peptide sequence is nucleotides 2557:2742; EXON 1 is nucleotides 2743:2856; INTRON 1 is nucleotides 2857:3384; EXON 2 is nucleotides 3385:3626; INTRON 2 is nucleotides 3627:3725; EXON 3 is nucleotides 3726:3879; INTRON 3 is nucleotides 3880:4152; EXON 4 is nucleotides 4153:4367; INTRON 4 is nucleotides 4368:4877; EXON 5 is nucleotides 4878:4995; INTRON 5 is nucleotides 4996:5155; EXON 6 is nucleotides 5156:5366; INTRON 6 is nucleotides 5367:5446; EXON 7 is nucleotides 5447:5508; INTRON 7 is nucleotides 5509:5617; EXON 8 is nucleotides 5618:5836; and the 3′ UTR is nucleotides 5837:6368. Mutations were then introduced into the EPSPS coding sequence in order to produce each of the six EPSPS variants to be tested. These mutated full genomic DNA sequences were then each cloned as a single expression cassette into plant transformation vectors.
Agrobacterium tumefaciens-mediated plant transformation was performed using methods known in the art. Glyphosate selection was used to select for transgenic events containing the transgene of interest and further screened for only those EPSPS variants that provided effective glyphosate tolerance in a plant cell. While all six EPSPS variants began the transformation process with the same amount of starting maize cellular material, there were differences in the number of small plantlets recovered that were capable of being transplanted to greenhouse soil media (Table 4). Transgenic events were further analyzed to determine transgene copy number. Healthy events with single copy of the transgene of interest were grown in the greenhouse soil media. Only three of the six EPSPS variants had more than one plant surviving. Up to twenty-five of these developing R0 plants were transplanted to larger pots and allowed to grow to maturity for seed collection in the greenhouse.

[3] = system: maize EPSPS; experiment: In vitro characterization of EPSPS mutants (EnzChek phosphate assay, Michaelis-Menten kinetics, glyphosate Ki); assay type: biochemical, Zea mays; conditions: for Km: apparent Km, mean±S.E.; for Ki: inhibitory constant for glyphosate, no unit in table (around 800 μM)
Protocol: Activity was determined by quantifying release of Pi, coupled to a reaction with MESG, catalyzed by purine-nucleoside phosphorylase using the EnzChek Phosphate Assay Kit from Invitrogen, first published in 1992. 95 μL of master mix was added to each well and 5 μL of the varied substrate dilutions were multi-channeled into the plate to start the reaction simultaneously for all conditions. Absorbance measurements at 360 nm were taken every 10 seconds for 3 minutes to capture the initial reaction rate of each condition. Varying levels of substrate were added to generate the resulting reaction rate curves. Each condition was performed in triplicate. Ki was determined as previously described (Lu, et al., Protein Engineering, Design and Selection 30:395-399 (2017)). Data was fit to the Michaelis-Menten kinetics equation and were also validated through GraphPad Prism's built-in function for each variant.
For protein expression of EPSPS and its variants, E. coli BL21 (DE3) was used as the expression host. Electrocompetent cells were transformed with the corresponding constructed plasmids, pET28a (+) with selected EPSPS variants (wild-type, TIPS, TIPS P126S, TIPS K296R, TIPS P126S/K296R). A single colony of an E. coli BL21 (DE3) strain harboring one of the constructed plasmids was inoculated into 2 mL of Luria Bertani broth (LB) medium with 50 μg/mL kanamycin and grown overnight at 37° C./225 rpm. The overnight-grown culture (using 100 μl) was scaled up with 2000-fold dilution in a 500-mL triple baffled shake flask and grown to a cell density of 0.8 (optical density [OD600]) at 37° C./225 rpm. Protein expression was induced by adding 0.2 mM of isopropyl β-D-1-thiogalactopyranoside (IPTG) and cells were cultured for 24 hours at 20° C./225 rpm. The induced cell culture was harvested by centrifugation at 4,000 g and 4° C. for 20 mins. Cell pellets were then resuspended in 25 mL of Dulbecco's Phosphate Buffered Saline (DPBS) (Thermo Fisher Scientific, Waltham, MA) pH 7.0 buffer containing 10 mM imidazole, 1 g/L of lysozyme and 5 μl of Pierce™ Universal Nuclease (Thermo Fisher Scientific, Waltham, MA), followed by mixing on a rocker for 30 mins at 4° C. Subsequently, cells were lysed by sonication and the resulting cell lysate was centrifuged at 14,000 g and 4° C. for 20 minutes to obtain the supernatant that contains soluble proteins. Target proteins from the supernatant was purified by HisPur™ Ni-NTA Resin (Thermo Fisher Scientific, Waltham, MA) according to the manufacturer's instruction.
The eluate was dialyzed with 3C protease added to the dialysis cassette, into the appropriate buffer followed by size-exclusion fast protein liquid chromatography. All EPSP synthase variants were stored in 20 mM Tris (pH 7.5), 100 mM NaCl and 10 mM β-mercaptoethanol. The protein concentration was then determined by using the Coomassie Plus Bradford Assay kit (Thermo Fisher Scientific) and the Infinite M200 PRO microplate reader (Tecan, Männedorf, Switzerland) to measure the absorbance of assay mixtures. The presence and purity of the purified proteins were assessed by sodium dodecyl sulfate-polyacrylamide gel electrophoresis.
Enzymatic activity, including inhibitory constant Ki, for EPSPS and TIPS closely corroborate values determined by previous reports. Mutations P126S and K296R have beneficial effects on their own to both Km and kcat and are additive when combined, similar to the observations of the in vivo growth characterization. Furthermore, the high Ki is maintained for each of the variants, showing similar or slightly higher values of around 800 μM compared to the starting point, TIPS. These findings confirm the phenotype endowed by the dual-trait selection pressure employed during the directed evolution campaigns. Kinetic parameters of maize EPSPS with mutations discovered through directed evolution. In Table 4, initial velocity data were measured in triplicate and fit to the Michaelis-Menten equation. […]

[4] = PEP at saturation (roughly 10 times its Km), read-out: Km (S3P)
[5] = S3P at saturation (roughly 10 times its Km), read-out: Km (PEP)

B1: P106S: well-studied EPSPS single mutant P106S (protein)
chain: AGAEEIVLQPIKEISGTVKLPGSKSLSNRILLLAALSEGTTVVDNLLNSEDVHYMLGALRTLGLSVEADKAAKRAVVVGCGGKFPVEDSKEEVQLFLGNAGTAMRSLTAAVTAAGGNATYVLDGVPRMRERPIGDLVVGLKQLGADVDCFLGTDCPPVRVNGIGGLPGGKVKLSGSISSQYLSALLMAAPLALGDVEIEIIDKLISIPYVEMTLRLMERFGVKAEHSDSWDRFYIKGGQKYKSPKNAYVEGDASSASYFLAGAAITGGTVTVEGCGTTSLQGDVKFAEVLEMMGAKVTWTETSVTVTGPPREPFGRKHLKAIDVNMNKMPDVAMTLAVVALFADGPTAIRDVASWRVKETERMVAIRTELTKLGASVEEGPDYCIITPPEKLNVTAIDTYDDHRMAMAFSLAACAEVPVAIRDPGCTRKTFPDYFDVLSTFVKN
In the case of B1, the “growth in yeast minimal media without glyphosate” value [1] is reported as “grew very similarly”, the growth in glyphosate ([1]; 0.5 mM glyphosate, Core1p promoter) is reported as “slightly higher growth than EPSPS after 80 hours” and the growth in glyphosate ([1]; 5 mM glyphosate (high levels)) is reported as “no growth”. The “order of glyphosate tolerance” value [1] was “P106S<T102I<TIPS”.

B2: P106S-P126S-K296R: maize EPSPS variant, SEQ ID NO:13 (protein)
chain: B1 chain with P126S, K296R
modifications: Zea mays
For B2, the “Number of young plants passing quality control checks” value [2] was 0 and the “Number of plantlets generated” value [2] was 39.

B3: P106S-K296R: P106S scaffold carrying ported mutation(s), as worded in b196 (protein)
chain: B1 chain with K296R
In the case of B3, the growth in glyphosate ([1]; 5 mM glyphosate (high levels)) is reported as “observable growth”.

B4: TIPS-P126S: maize EPSPS variant, SEQ ID NO:15 (protein)
chain: B1 chain with T102I, P126S
modifications: Zea mays
Work on B4 yielded a Km [3, 4] of 28.2 µM, a Km [3, 5] of 13.7 µM and a Ki [3] of 859 µM.

B5: T102I-P126S-K296R: maize EPSPS variant, SEQ ID NO:12 (protein)
chain: B1 chain with T102I, S106P, P126S, K296R
modifications: Zea mays
With B5 the “Number of young plants passing quality control checks” value [2] was 1 and the “Number of plantlets generated” value [2] was 69.

B6: TIPS-K296R: maize EPSPS variant, SEQ ID NO:16 (protein)
chain: B1 chain with T102I, K296R
modifications: Zea mays
With B6 the Km [3, 4] was 16.5 µM, the Km [3, 5] was 24 µM and the Ki [3] was 841 µM.

B7: TIPS-P126L: maize EPSPS variant, SEQ ID NO:22 (protein)
chain: B1 chain with T102I, P126L
modifications: Zea mays
B7 was tested, and the “glyphosate tolerance in synthetic yeast host” value [1] was “moderate glyphosate tolerance”.

B8: TIPS-1177V: maize EPSPS variant, SEQ ID NO:21 (protein)
chain: B1 chain with T102I, I177V
modifications: Zea mays
With B8 the “glyphosate tolerance in synthetic yeast host” value [1] was “moderate glyphosate tolerance”.

B9: T102I: well-studied EPSPS single mutant T102I (protein)
chain: B1 chain with T102I, S106P
With B9 the “order of glyphosate tolerance” value [1] was “P106S<T102I<TIPS”.

B10: TIPS-V66L-M104L: maize EPSPS variant, SEQ ID NO:17 (protein)
chain: B1 chain with V66L, T102I, M104L
modifications: Zea mays
In the case of B10, the “growth in yeast minimal media without glyphosate” value [1] is reported as “high growth in non-glyphosate” and the “glyphosate tolerance in synthetic yeast host” value [1] is reported as “high glyphosate tolerance”.

Source: patent US20260275304A1, “METHODS AND COMPOSITIONS FOR GLYPHOSATE TOLERANCE IN PLANTS” (Monsanto Technology LLC, priority 2023, published 2026)
